The text below walks through data of patent US20130274178A1 (PHILADELPHIA HEALTH AND EDUCATION CORPORATION D B A DREXEL …, published 2013).

Where no end group is shown, it is not given here. [ ]: non-standard residue; d: D form. Bounds are passed on as bounds.

The target in assay [1] is T1, HIV-1YU2 gp120 (HIV-1 strain YU-2, UniProt P35961 32-498, limits assumed).
T1 construct: domain: gp120
Description: SPR competition; gp120 binding to CD4.
Description: (§1) All surface plasmon resonance experiments (SPR) were performed on a BIA3000 optical biosensor (Biocore, Inc., Uppsala, Sweden). […] The indicated analytes were passed over the surfaces at a flow rate of 50 μL/minute, with 2.5 minute association phase and 2.5 minute dissociation phase.

For assay [2], the target named is T1, HIV-1YU2 gp120. Description: ITC; peptide titrated into gp120, 25 °C, PBS pH 7.4.
Description: The solutions contained within the calorimetric cells and injector syringes were prepared in PBS, pH 7.4 and thoroughly degassed to avoid bubble formation in the calorimetric cell. The heat evolved upon each injection of the peptide solution was obtained from the integral of the calorimetric signal. The heat associated with binding of a ligand to the protein in the cell was obtained by subtracting the heat of dilution from the heat of reaction. Heats of dilution due to mismatch between the syringe and cell solutions were negligible in all experiments.
The target in assay [3] is T1, HIV-1YU2 gp120. In words: SPR direct binding, YU2 gp120 (Example 8); Example 8 determination.
Assay [4] has as its target HIV-1 gp120 on envelope-pseudotyped luciferase-reporter virus (strain not stated, Example 8) (HIV-1, strain ). In words: cell-based or functional assay.
The target of assay [5] is HIV-1BaL envelope glycoprotein on pseudotyped virus (HIV-1 strain BaL). In words: cell-based or functional assay.
Assay [6] has as its target T1, HIV-1YU2 gp120. In words: SPR competition; gp120 binding to mAb 17b.
Description: as §1
For assay [7], the target named is T1, HIV-1YU2 gp120. In words: SPR direct binding; YU-2 gp120 immobilized (~3500 RU), peptide as analyte.
Description: Surface plasmon resonance (SPR) interaction analyses were performed on a Biacore® 3000 optical biosensor (GE). All experiments were carried out at 25° C. using standard PBS, pH 7.4, with 0.005% Surfactant P20.
Regeneration of the surface was achieved by a one 5-second pulse of 10 mM glycine, pH 1.5.
Assay [8] deals with T1, HIV-1YU2 gp120. Description: ITC; peptide titrated into gp120, 25 °C, PBS pH 7.4; ITC, 25° C. in PBS, pH 7.4. On the technique in general: Isothermal titration calorimetry measures the heat released or taken up as one component is titrated into another.
Description: Data was obtained as 25° C. in PBS, pH 7.4.
The solutions contained within the calorimetric cells and injector syringes were prepared in PBS, pH 7.4 and thoroughly degassed to avoid bubble formation in the calorimetric cell. The heat evolved upon each injection of the peptide solution was obtained from the integral of the calorimetric signal. The heat associated with binding of a ligand to the protein in the cell was obtained by subtracting the heat of dilution from the heat of reaction.
Assay [9] concerns the target T2, soluble four domain CD4 (sCD4) (UniProt P01730 26-394, limits assumed).
T2 construct: domain: soluble four domain CD4; also called soluble CD4
In words: SPR, sCD4 surface.

Assay [10] deals with T1, HIV-1YU2 gp120. Description: competition ELISA: IgG b12 with UM17 on immobilized YU-2 gp120; blocked ligand b12. A general note: An ELISA detects its analyte on a solid surface through an enzyme-linked reagent.
The target in assay [11] is T1, HIV-1YU2 gp120. Description: SPR competition; gp120 binding to mAb 17b; Example 8, Table 9.
For assay [12], the target named is T1, HIV-1YU2 gp120. In words: SPR direct binding; YU-2 gp120 immobilized (~3500 RU), peptide as analyte; Example 9; SPR direct binding, peptide over immobilized gp120.
In a further assay the target is T3, HIV-1 92UG037-08 gp120 (HIV-1 strain 92UG037-08).
T3 construct: domain: gp120; also called 92UG037-08 (A); 92Ugo37-08 gp120
Description: SPR direct binding; gp120 immobilized, peptide as analyte.

Assay [13] addresses T2, soluble four domain CD4 (sCD4). Description: SPR, immobilized sCD4. On the technique in general: SPR reads the build-up and loss of mass on a sensor chip optically.
Assay [14] deals with T1, HIV-1YU2 gp120. In words: ELISA and SPR competition; gp120 binding to sCD4.
For assay [15], the target named is T1, HIV-1YU2 gp120. In words: competition ELISA: mAb 17b (0.1 µg/ml) with peptide on plate-coated YU-2 gp120; blocked ligand mAb 17b (the UM10 curve that is not diamonds).
The target in assay [16] is T1, HIV-1YU2 gp120. Description: competition ELISA: sCD4 (0.1 µg/ml) with peptide on plate-coated YU-2 gp120; blocked ligand sCD4 (diamonds per the legend).

Description for HIV-1 92UG037-08 gp120: as §1
Data analysis was performed using BIAEvaluation® 4.0 software (Biacore Inc., NJ). The responses of a buffer injection and responses from the control surface to which the mAb 2B6R was immobilized, were subtracted to account for nonspecific binding. Experimental data were fitted to a simple 1:1 Langmuir binding model with a parameter included for mass transport. The average kinetic parameters (association [kₐ] and dissociation [kd] rates) generated from a minimum of four datasets were used to define equilibrium association (KA) and dissociation constants (KD).

B1: UM24 (peptide)
peptide: XNNIPWS
modifications: not fully specified; residue 1 is citrulline (Cit); proline 5 is a 1,2,3-triazole-modified proline (Azp) 4-substituted with ferrocene
notes: Rink amide resin; also called CitNNIPWS
With B1, the IC50 with HIV-1YU2 gp120 [1] turned out to be 81 nM. In the assay with HIV-1YU2 gp120 [2], the “-TΔS” value is 6.3 kcal/mol and the ΔH was -16.7 kcal/mol. In the assay with HIV-1YU2 gp120 [3], this molecule yielded a Kd of 21 nM. Moreover, in assay [4], the “IC50 (µM), pseudotype virus cell infection assay” value was 4.9 µM.
As to INNI[Azp‑triazole‑ferrocene]WS-NH2 (Rink amide resin; also called INNIPWS) [UM21], the “IC50 (µM), pseudotyped HIV-1BaL infection of HOS.CD4.CCR5 cells” value (“IC50 (µM) … of HOS.CD4.CCR5 cells” for short) in [5] is 7.4 µM. Also, the IC50 in the assay with HIV-1YU2 gp120 [1] was 86 nM. In assay [4], the “IC50 (µM), pseudotype virus cell infection assay” value was determined as 7.4 µM.
As to FNNI[Azp‑triazole‑ferrocene]WS-NH2 (Rink amide resin; also called FNNIPWS) [UM28], the “IC50 (µM) … of HOS.CD4.CCR5 cells” value in assay [5] was found to be 13 µM. The molecule also yielded an IC50 in the assay with HIV-1YU2 gp120 [1] of 105 nM. This molecule had an IC50 in the assay with HIV-1YU2 gp120 [6] of 174 nM. In addition, in the assay with HIV-1YU2 gp120 [7], the off-rate constant (koff) was 0.0043 s⁻¹ and the kon was 380000 M⁻¹ s⁻¹. Also, the “IC50 (µM), pseudotype virus cell infection assay” value in assay [4] was 11 µM.
For the molecule RNNI[Azp‑triazole‑ferrocene]WS (also called RNNIPWS) [UM22], in assay [5], the “IC50 (µM) … of HOS.CD4.CCR5 cells” value was 11 µM. Further, the IC50 with HIV-1YU2 gp120 [1] amounted to 123 nM; with HIV-1YU2 gp120 [6], 181 nM. Also, the koff with HIV-1YU2 gp120 [7] was found to be 0.0068 s⁻¹. The same molecule returned a kon with HIV-1YU2 gp120 [7] of 510000 M⁻¹ s⁻¹.
Turning to ENNI[Azp‑triazole‑ferrocene]WS-NH2 (Rink amide resin; also called ENNIPWS) [UM23], the “IC50 (µM) … of HOS.CD4.CCR5 cells” value in assay [5] is 5.8 µM. Further, in the assay with HIV-1YU2 gp120 [1], the IC50 is 88 nM. The IC50 with HIV-1YU2 gp120 [6] was found to be 165 nM. In addition, in the assay with HIV-1YU2 gp120 [7], the koff was 0.0034 s⁻¹ and the kon was 130000 M⁻¹ s⁻¹. In addition, the “IC50 (µM), pseudotype virus cell infection assay” value in [4] came to 6.6 µM.
Turning to KNNI[Azp‑triazole‑ferrocene]WS (also called KNNIPWS) [UM27], the “IC50 (µM) … of HOS.CD4.CCR5 cells” value in assay [5] worked out at 23 µM. The molecule also showed an IC50 with HIV-1YU2 gp120 [1] of 128 nM. This molecule showed an IC50 with HIV-1YU2 gp120 [6] of 197 nM. Also, in the assay with HIV-1YU2 gp120 [7], the koff turned out to be 0.0088 s⁻¹ and the kon turned out to be 590000 M⁻¹ s⁻¹.
Consider NI[Azp‑triazole‑ferrocene]WS (also called NIPWS) [UM41], for which, in the assay with HIV-1YU2 gp120 [8], the “-TΔS” value is -1.6 kcal/mol and the ΔH was -6.1 kcal/mol.
Consider RINNI[Azp‑triazole‑ferrocene] (also called RINNIP) [UM16], for which the Kd with HIV-1YU2 gp120 [7] was more than 10 µM.
In the case of RINNI[Azp‑triazole‑ferrocene]WS-NH2 (Rink amide resin) [UM11], the “IC50 (µM) … of HOS.CD4.CCR5 cells” value in assay [5] turned out to be 4 µM. The same molecule showed a 50% inhibitory concentration (IC50) with HIV-1YU2 gp120 [6] of 168 nM. Besides, in [4], the “IC50 (µM), pseudotype virus cell infection assay” value came out at 10.7 µM.
With EINNI[Azp‑triazole‑ferrocene]WS-NH2 (Rink amide resin) [UM13], in assay [5], the “IC50 (µM) … of HOS.CD4.CCR5 cells” value is 1.2 µM. In the assay with HIV-1YU2 gp120 [1], the IC50 came out at 79 nM. For the same molecule, in assay [4], the “IC50 (µM), pseudotype virus cell infection assay” value is 3.2 µM.
Consider RINNI[Azp‑triazole‑ferrocene]W (also called RINNIPW) [UM12], for which the “IC50 (µM) … of HOS.CD4.CCR5 cells” value in [5] was determined as 6.8 µM. Moreover, the IC50 with HIV-1YU2 gp120 [1] was determined as 124 nM; with HIV-1YU2 gp120 [6], 218 nM. In addition, the binding result in [9] is recorded as “no binding”. Moreover, the “-TΔS” value with HIV-1YU2 gp120 [2] was 9.9 kcal/mol. Also, in the assay with HIV-1YU2 gp120 [2], the ΔH is -19.7 kcal/mol. Besides, the “IC50 (µM), pseudotype virus cell infection assay” value in assay [4] came out at 12.5 µM.
As for NNI[Azp‑triazole‑ferrocene]W (also called NNIPW) [UM17], in the assay with HIV-1YU2 gp120 [2], the “-TΔS” value worked out at 3.3 kcal/mol and the ΔH is -13.2 kcal/mol. Also, in the assay with HIV-1YU2 gp120 [10], the “IC50 (read off the curve)” value was approximately 3 µM.
Consider INNI[Azp‑triazole‑ferrocene]W-NH2 (Rink amide resin; also called INNIPW) [UM15], for which the “IC50 (µM) … of HOS.CD4.CCR5 cells” value in [5] turned out to be 6.9 µM. For the same molecule, in the assay with HIV-1YU2 gp120 [2], the “-TΔS” value turned out to be 6.6 kcal/mol and the ΔH is -16.6 kcal/mol. In assay [4], the “IC50 (µM), pseudotype virus cell infection assay” value came to 7.2 µM.
In the case of NNI[Azp‑triazole‑ferrocene]WS-NH2 (Rink amide resin; also called NNIPWS) [UM31], the “IC50 (µM) … of HOS.CD4.CCR5 cells” value in assay [5] was determined as 36 µM. Also, the IC50 in the assay with HIV-1YU2 gp120 [1] came out at 5000 nM. Also, in the assay with HIV-1YU2 gp120 [2], the “-TΔS” value was found to be 4.1 kcal/mol and the ΔH is -13.8 kcal/mol. This molecule also showed an IC50 with HIV-1YU2 gp120 [11] of 16 µM. Moreover, in assay [4], the “IC50 (µM), pseudotype virus cell infection assay” value came out at 10 µM.
For the molecule ENI[Azp‑triazole‑ferrocene]WS (also called ENIPWS) [UM33], in the assay with HIV-1YU2 gp120 [7], the koff amounted to 0.0018 s⁻¹ and the kon was 1100 M⁻¹ s⁻¹.
Regarding RNI[Azp‑triazole‑ferrocene]WS (also called RNIPWS) [UM32], in the assay with HIV-1YU2 gp120 [7], the koff was determined as 0.0031 s⁻¹ and the kon was 3300 M⁻¹ s⁻¹.
On to INI[Azp‑triazole‑ferrocene]WS-NH2 (Rink amide resin; also called INIPWS) [UM35], for which the “IC50 (µM) … of HOS.CD4.CCR5 cells” value in assay [5] was found to be 17 µM. The molecule further yielded a dissociation constant (Kd) with HIV-1YU2 gp120 [12] of more than 10 µM. In assay [4], the “IC50 (µM), pseudotype virus cell infection assay” value amounted to 17 µM.

B2: HNG-156 (peptide)
peptide: RINNIPWSEAMM
modifications: proline 6 is a 1,2,3-triazole-modified proline (from cis-4-azidoproline, Azp) 4-substituted with ferrocene
With B2, in the assay with HIV-1 92UG037-08 gp120, binding was put at a Kd of 16.3 nM. For the same molecule, the binding result in assay [13] is recorded as “no binding (tested: 10 to 600 nM)”.
With [Azp‑triazole‑ferrocene]WSEAMM (also called PWSEAMM) [UM10], the “IC50 (µM) … of HOS.CD4.CCR5 cells” value in assay [5] worked out at 35 µM. In addition, the binding result in [9] is “no binding”. The same molecule had an IC50 with HIV-1YU2 gp120 [14] of more than 10 µM. For the same molecule, the “IC50 (read off the curve)” value with HIV-1YU2 gp120 [15] is approximately 200 nM; in the assay with HIV-1YU2 gp120 [16] it was approximately 2 µM.

By IC50 is commonly meant the midpoint of a concentration-inhibition curve. Low values mean higher potency, high ones lower potency. What is called Kd is the concentration at which binding is half-saturated. As a reminder, the koff is the first-order rate constant of dissociation. As a reminder, the kon is the rate constant with which the complex forms. Lower therefore signals slow association.
